Measured values taken from PMC314469, “Protein Interaction Networks by Proteome Peptide Scanning” (PLoS Biology, 2004).

T1: Yfr024 SH3 (LSB3_YEAST), P43603
T1 chain: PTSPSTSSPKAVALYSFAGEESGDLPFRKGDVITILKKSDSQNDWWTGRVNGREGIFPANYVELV

T2: Myo5 SH3 (MYO5_YEAST), Q04439
T2 chain: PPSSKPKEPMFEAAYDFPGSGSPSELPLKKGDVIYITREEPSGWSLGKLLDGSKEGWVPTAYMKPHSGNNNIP

T3: Yhr016c SH3 (YSC84_YEAST), P32793
T3 chain: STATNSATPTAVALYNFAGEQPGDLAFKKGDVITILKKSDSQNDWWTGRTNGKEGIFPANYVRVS

T4: Rvs167 SH3 (RV167_YEAST), P39743
T4 chain: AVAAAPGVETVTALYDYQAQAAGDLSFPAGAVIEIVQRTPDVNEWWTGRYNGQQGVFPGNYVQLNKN

T5: Boi1 SH3 (BOI1_YEAST), P38041
T5 chain: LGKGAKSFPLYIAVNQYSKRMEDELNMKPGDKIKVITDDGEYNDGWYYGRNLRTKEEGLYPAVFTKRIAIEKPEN

T6: Boi2 SH3 (BOI2_YEAST), P39969
T6 chain: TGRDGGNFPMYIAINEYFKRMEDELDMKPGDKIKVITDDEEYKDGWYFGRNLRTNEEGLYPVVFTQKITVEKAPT


Columns and labels:
Assay in all cases: SPOT array
[1] = target: T1, Yfr024 SH3 (LSB3_YEAST), P43603
[2] = target: T2, Myo5 SH3 (MYO5_YEAST), Q04439
[3] = target: T3, Yhr016c SH3 (YSC84_YEAST), P32793
[4] = target: T4, Rvs167 SH3 (RV167_YEAST), P39743
[5] = target: Sho1 SH3 (SHO1_YEAST), P40073
[6] = target: T5, Boi1 SH3 (BOI1_YEAST), P38041
[7] = target: T6, Boi2 SH3 (BOI2_YEAST), P39969

Chain of Sho1 SH3 (SHO1_YEAST), P40073 (P40073 295-366): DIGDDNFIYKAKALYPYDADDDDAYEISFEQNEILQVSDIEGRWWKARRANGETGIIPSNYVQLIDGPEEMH

| Binder | normalised SPOT signal, Boehringer light units (BLU); mean over the file's lines of this peptide [1] | normalised SPOT signal, Boehringer light units (BLU); mean over the file's lines of this peptide [2] | normalised SPOT signal, Boehringer light units (BLU); mean over the file's lines of this peptide [3] | normalised SPOT signal, Boehringer light units (BLU); mean over the file's lines of this peptide [4] | normalised SPOT signal, Boehringer light units (BLU); mean over the file's lines of this peptide [5] | normalised SPOT signal, Boehringer light units (BLU); mean over the file's lines of this peptide [6] | normalised SPOT signal, Boehringer light units (BLU); mean over the file's lines of this peptide [7] |
| --- | --- | --- | --- | --- | --- | --- | --- |
| PSRSKSNPILPIMR [YLR319C 684-697] | 1260 | 523 | 70.1 | 246 | 98.4 | 196 | 25.1 |
| PSSHKRKPVIPWDA [YNL295W 201-214] | 65.5 | 289 | 8.5 | 52 | 79.1 | 93.5 | 40.8 |
| PSSKKNKPNPPPGS [YJL056C 176-189] | 49.2 | 107 | 28 | 40.5 | 72.1 | 571 | 0.8 |
| PTANKYAPVSPTVQ [YPL085W 797-810] | 0 | 191 | 11.2 | 93.3 | 37.8 | 168 | 27.4 |
| PTVQKFSPHPPTTL [YER144C 362-375] | 10.2 | 213 | 16 | 20.8 | 44.4 | 58 | 14.5 |
| PVPVRMQPQPPQPM [YBR108W 383-396] | 1650 | 188 | 145 | 70.5 | 71.7 | 93.8 | 85.6 |
| PVRSRVLPATPRQI [YKL086W 103-116] | 15900 | 1470 | 1380 | 10400 | 28200 | 2030 | 35.9 |
| PYMYKYLPRFPNLK [YPL137C 764-777] | 1150 | 382 | 432 | 920 | 1590 | 177 | 991 |
| QATGRRGPAPPPPP [YOR181W 378-391] | 49.6 | 607 | 37.1 | 30.1 | 63.2 | 102 | 11.1 |
| QELPRAIPVMPFVD [YJL020C 471-484] | 700 | 118 | 118 | 57 | 11.6 | -0 | 22.2 |
| QFALKNTPITPGSS [YGR061C 462-475] | 66.9 | 111 | 33.6 | 79.8 | 36.4 | 142 | 0 |
| QGSNKYSPSSPLTT [YDR122W 964-977] | 74.9 | 171 | 146 | 37.5 | 44.3 | 34.7 | 31.3 |
| QHKPKVKPSKPEAK [YHL007C 236-249] | 12.8 | 956 | 9.7 | 70.6 | 88.9 | 2560 | 40.3 |
| QIVNKPLPPLPVAG [YJL128C 89-102] | 1720 | 249 | 28.6 | 41.5 | 60100 | 56.1 | 13.7 |
| QLINRFMPHFPSSP [YHR036W 42-55] | 2780 | 518 | 316 | 716 | 323 | 273 | 325 |
| QLQEKLSPDLPDEE [YGL173C 401-414] | 11.2 | 216 | 16.4 | 59.4 | 27.1 | 49.4 | 27.9 |
